Results reported in PMC8860585, “TRIM21 suppresses CHK1 activation by preferentially targeting CLASPIN for K63-linked ubiquitination” (Nucleic Acids Research, 2022).

Biological target: T1, HIS-TRIM21 (human, UniProt P19474 1-475)
T1 construct: human TRIM21 cDNA (full length cDNA by the plasmid paragraph) cloned into pET28a; source: bacterially purified (pET28a)
Experiment: pull-down; GST-CLASPIN 301–630aa immobilized on Glutathione Sepharose 4B beads incubated with HIS-TRIM21 for 4 h at 4°C; HIS-TRIM21 by immunoblot
Conditions: both partners purified

T1 sequence (P19474 whole entry): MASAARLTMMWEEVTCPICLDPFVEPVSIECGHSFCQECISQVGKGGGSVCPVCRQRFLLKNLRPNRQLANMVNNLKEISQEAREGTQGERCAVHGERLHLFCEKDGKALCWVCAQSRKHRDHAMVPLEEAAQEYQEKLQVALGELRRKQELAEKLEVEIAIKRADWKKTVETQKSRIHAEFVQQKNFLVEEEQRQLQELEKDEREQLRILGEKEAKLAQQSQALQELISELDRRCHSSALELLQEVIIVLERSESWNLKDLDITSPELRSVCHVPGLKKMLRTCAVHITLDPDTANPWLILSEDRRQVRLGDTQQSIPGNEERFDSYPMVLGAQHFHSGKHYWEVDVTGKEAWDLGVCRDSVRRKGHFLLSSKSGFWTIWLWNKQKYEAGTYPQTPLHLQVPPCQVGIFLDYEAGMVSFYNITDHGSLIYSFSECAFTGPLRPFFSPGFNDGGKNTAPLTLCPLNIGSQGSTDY

binding result: binds
B1: GST-CLASPIN 301–630aa (domain or fragment, human, UniProt Q9HAW4 301-630, looked up)
chain: ALNLPYHMPENKTIHDFFKRKPRPTCHGNAMALLKSSKYQSSHHKEIIDTANTTEMNSDHHSKGSEQTTGAENEVETNALPVVSKETQIITGSDESCRKDLVKNEELEIQEKQKQSDIRPSPGDSSVLQQESNFLGNNHSEECQVGGLVAFEPHALEGEGPQNPEETDEKVEEPEQQNKSSAVGPPEKVRRFTLDRLKQLGVDVSIKPRLGADEDSFVILEPETNRELEALKQRFWKHANPAAKPRAGQTVNVNVIVKDMGTDGKEELKADVVPVTLAPKKLDGASHTKPGEKLQVLKAKLQEAMKLRRFEERQKRQALFKLDNEDGFEE
notes: human CLASPIN F2 region, residues 301–630; also called GST fusion of the CLASPIN F2 region (301–630aa); source: bacterially purified (pGEX4T-1), immobilized on Glutathione Sepharose 4B
